Measurements taken from publication PMC3282769, “New Insight into the Transcarbamylase Family: The Structure of Putrescine Transcarbamylase, a Key Catalyst for Fermentative Utilization of Agmatine” (PLoS ONE, 2012).

Columns and labels:
NCCCCN [1] = experiment: purified protein; details: 10 mM carbamylphosphate, 50 mM Tris-HCl pH 7, 37°C, 230YGLY233 replaced by VSMG
NCCCCN [2] = experiment: carbamylputrescine production, colorimetric (Archibald reaction); hyperbolic fit; assay type: biochemical, Enterococcus faecalis; details: 10 mM carbamylphosphate, 50 mM Tris-HCl pH 7, 37°C

Row | Substance | Km (NCCCCN [1]) | Km (NCCCCN [2])
1 | PTC (putrescine transcarbamylase) (Enterococcus faecalis V583; G231S/L232M/Y230V/Y233G) | 32.9 ± 8.8 mM | 
2 | PTC (putrescine transcarbamylase) (Enterococcus faecalis V583) |  | 1.41 ± 0.22 mM
